These results are taken from patent US20050048572A1 (Genentech, published 2005).

The target of experiment [1] is T1, Human VEGF 165 (human, UniProt P15692 27-191).
T1 construct: mature; The 165-residue isoform without signal peptide; made in E. coli as in Simmons & Yansura 1996
As to the kind of experiment: SPR (BIAcore-3000), apparent Kd from koff/kon, VEGF165 immobilised, 37 C.
Protocol: (§1) A CM-5 biosensor chip (Biacore, Inc.) was activated according to the manufacturer's instructions for amine coupling. […] Unreacted groups were blocked with 1 M ethanolamine. […] The kinetics of IgG variants binding to immobilized VEGF were measured with 2-fold serial dilutions beginning with 500 nM IgG in running buffer (PBS, 0.05% Tween, 0.01% sodium azide) at a flow rate of 20 μl/min (see FIG. 12). Binding measurements were carried out at 37° C. Regeneration of the chip after each cycle was with 20 mM HCl, followed by washing, an injection of 100 mM Tris pH 8.0, and additional washing.
(§2) The kinetic curves were fit to a 1:1 Langmuir binding model using BIAcore evaluation software version 3, which calculated association (kₒₙ) and dissociation (koff) rates. An apparent equilibrium constant, Kd, was calculated from koff/kₒₙ for each variant (Table 7).

Experiment [2] addresses T1, Human VEGF 165. As to the kind of experiment: SPR (BIAcore-3000), VEGF165 immobilised on CM-5 chip, IgG in solution, 37 C, 1:1 Langmuir fit.
Protocol: as §1, §2

T1 sequence (P15692 other isoform, or with tags, fused parts or gaps): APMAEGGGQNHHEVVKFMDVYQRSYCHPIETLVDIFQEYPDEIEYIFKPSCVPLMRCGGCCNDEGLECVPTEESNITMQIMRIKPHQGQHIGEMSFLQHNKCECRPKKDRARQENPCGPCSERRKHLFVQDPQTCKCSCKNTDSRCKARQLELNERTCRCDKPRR

B1: anti-VEGF antibody VNERK, full-length, wild type hinge, produced in E. coli (antibody, V domains shown)
VH: EVQLVESGGGLVQPGGSLRLSCAASGYTFTNYGINWVRQAPGKGLEWVGWINTYTGEPTYAADFKRRFTFSLDTSKSTAYLQMNSLRAEDTAVYYCAKYPHYYVNERKSHWYFDVWGQGTLVTVSS
VL: DIQLTQSPSSLSASVGDRVTITCSASQDISNYLNWYQQKPGKAPKVLIYFTSSLHSGVPSRFSGSGSGTDFTLTISSLQPEDFATYYCQQYSTVPWTFGQGTKVEIKR
notes: Full-length aglycosylated human IgG1 made in E. coli; also called VNERK wild type; VNERK hinge wild type
Turning to B1, in the experiment with Human VEGF 165 [1], the Kd came out at 250 pM. In the experiment with Human VEGF 165 [2], the koff was 5.9e-06 s⁻¹ and the kon turned out to be 23000 M⁻¹ s⁻¹.
